Test results: patent US20250376507A1, “NOVEL TUMOR ANTIGEN-TARGETING ANTICANCER AGENT” (INDUSTRY FOUNDATION OF CHONNAM NATIONAL UNIVERSITY, priority 2022, published 2025)

T1: recombinant calreticulin protein (rCRT) (Homo sapiens, UniProt P27797)
T1 construct: purchased Abcam
T1 sequence (P27797 18-417): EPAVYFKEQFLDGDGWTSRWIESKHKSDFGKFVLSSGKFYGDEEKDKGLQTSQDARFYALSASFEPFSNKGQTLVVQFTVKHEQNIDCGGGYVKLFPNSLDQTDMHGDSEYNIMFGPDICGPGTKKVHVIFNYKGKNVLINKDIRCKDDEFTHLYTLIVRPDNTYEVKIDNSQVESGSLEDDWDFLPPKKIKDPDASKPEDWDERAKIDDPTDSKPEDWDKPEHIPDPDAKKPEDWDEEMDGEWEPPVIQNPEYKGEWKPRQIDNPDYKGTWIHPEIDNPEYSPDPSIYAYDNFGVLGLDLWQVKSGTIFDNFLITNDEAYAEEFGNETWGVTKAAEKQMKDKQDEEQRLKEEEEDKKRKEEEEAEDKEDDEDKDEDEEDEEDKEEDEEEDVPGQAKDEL

T2: ecto-CRT on MC-38 cells (Mus musculus, UniProt P14211)
T2 sequence (P14211 18-416): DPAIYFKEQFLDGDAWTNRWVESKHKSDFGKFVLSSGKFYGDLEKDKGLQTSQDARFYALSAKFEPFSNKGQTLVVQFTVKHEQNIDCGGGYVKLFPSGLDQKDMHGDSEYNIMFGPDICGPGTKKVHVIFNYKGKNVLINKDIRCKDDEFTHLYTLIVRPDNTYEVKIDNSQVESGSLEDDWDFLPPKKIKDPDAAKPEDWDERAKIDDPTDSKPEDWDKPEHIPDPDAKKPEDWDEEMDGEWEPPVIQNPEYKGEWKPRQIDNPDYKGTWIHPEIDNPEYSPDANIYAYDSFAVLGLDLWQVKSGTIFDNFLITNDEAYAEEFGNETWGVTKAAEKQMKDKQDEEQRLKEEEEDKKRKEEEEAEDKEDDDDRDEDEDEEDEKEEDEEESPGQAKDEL

B1: CRT3LP: PASylated L-ASNase fused with CRT-targeting CRT3 monobody at N-terminus and PAS200 tag plus His6 tag at C-terminus (protein)
chain: MASVSDVPRDLEVVAATPTSLLISWKLGFFKRYYRITYGETGGNSPVQEFTVPGSKSTATISGLKPGVDYTITVYAVTGQPMYGQPMYPISINYRTSGGGGSGGGGSEFLPNITILATGGTIAGGGDSATKSNYTAGKVGVENLVNAVPQLKDIANVKGEQVVNIGSQDMNDDVWLTLAKKINTDCDKTDGFVITHGTDTMEETAYFLDLTVKCDKPVVMVGAMRPSTSMSADGPFNLYNAVVTAADKASANRGVLVVMNDTVLDGRDVTKTNTTDVATFKSVNYGPLGYIHNGKIDYQRTPARKHTSDTPFDVSKLNELPKVGIVYNYANASDLPAKALVDAGYDGIVSAGVGNGNLYKTVFDTLATAAKNGTAVVRSSRVPTGATTQDVEVDDAKYGFVASGTLNPQKARVLLQLALTQTKDPQQIQQIFNQYGSSGGGGSGGGGSASPAAPAPASPAAPAPSAPAASPAAPAPASPAAPAPSAPAASPAAPAPASPAAPAPSAPAASPAAPAPASPAAPAPSAPAASPAAPAPASPAAPAPSAPAASPAAPAPASPAAPAPSAPAASPAAPAPASPAAPAPSAPAASPAAPAPASPAAPAPSAPAASPAAPAPASPAAPAPSAPAASPAAPAPASPAAPAPSAPAAGSHHHHHH
B2: CRT4LP: PASylated L-ASNase fused with CRT-targeting CRT4 monobody at N-terminus and PAS200 tag plus His6 tag at C-terminus (protein)
chain: MASVSDVPRDLEVVAATPTSLLISWGQPMYGQPMYYYRITYGETGGNSPVQEFTVPGSKSTATISGLKPGVDYTITVYAVTKLGFFKRPISINYRTSGGGGSGGGGSEFLPNITILATGGTIAGGGDSATKSNYTAGKVGVENLVNAVPQLKDIANVKGEQVVNIGSQDMNDDVWLTLAKKINTDCDKTDGFVITHGTDTMEETAYFLDLTVKCDKPVVMVGAMRPSTSMSADGPFNLYNAVVTAADKASANRGVLVVMNDTVLDGRDVTKTNTTDVATFKSVNYGPLGYIHNGKIDYQRTPARKHTSDTPFDVSKLNELPKVGIVYNYANASDLPAKALVDAGYDGIVSAGVGNGNLYKTVFDTLATAAKNGTAVVRSSRVPTGATTQDVEVDDAKYGFVASGTLNPQKARVLLQLALTQTKDPQQIQQIFNQYGSSGGGGSGGGGSASPAAPAPASPAAPAPSAPAASPAAPAPASPAAPAPSAPAASPAAPAPASPAAPAPSAPAASPAAPAPASPAAPAPSAPAASPAAPAPASPAAPAPSAPAASPAAPAPASPAAPAPSAPAASPAAPAPASPAAPAPSAPAASPAAPAPASPAAPAPSAPAASPAAPAPASPAAPAPSAPAASPAAPAPASPAAPAPSAPAAGSHHHHHH

Columns and labels:
[1] = molecular target: T1, recombinant calreticulin protein (rCRT); experiment: Binding affinity of recombinant proteins for CRT by ELISA; settings: for Kd: ELISA, read-out: dissociation constant (Kd) for CRT; for affinity for CRT relative to single CRT3/CRT4 monobody: compared with monobodies of Zhang et al. 2021
Description: The affinity of the recombinant protein for CRT was measured by enzyme-linked immunosorbent analysis (ELISA) (J. D. Beatty, et al., Journal of immunological methods 100(1-2), 173-179, 1987). In brief, 100 μL of PASylated CRT-targeted L-ASNases coated onto 96-well microplates (0-10 μM/well) overnight at 4° C. Unbound proteins were removed by aspiration from the wells and 100 μL of 10 μM rCRT proteins were added to each well and incubated for 2 h at room temperature. After rCRTs were removed, rabbit anti-CRT antibodies (diluted to 1:500) were added to each well and incubated for 2 h at room temperature. The antibodies were removed by aspiration, and the wells were washed five times with T-PBS. Then, biotin-conjugated anti-rabbit secondary antibodies (diluted to 1:1000) were added and incubated for 1 h. After washing with T-PBS, 100 μL of avidin-HRP (diluted to 1:250) was added to each well and incubated for 30 minutes at room temperature. After aspiration and washing five times, 100 μL of 1×3,3′,5,5′-tetramethylbenzidine (TMB) buffer (Thermo Fisher Scientific, USA) was added to each well to form a […] reaction product. After 15 minutes, 50 μL of 0.5 M H2SO4 solution was added to each well to stop the chromogenic reaction. The amount of colorimetric product was evaluated as the optical density value at 450 nm (OD450) by a SpectraMax M2 microtiter plate reader (Molecular Devices, USA).

ecto-CRT on MC-38 cells [2] = molecular target: T2, ecto-CRT on MC-38 cells; experiment: Confocal immunofluorescence staining of MC-38 cells; format: cell-based; parameters: endogenous in cells; host or cells: CT-26 and MC-38 mouse colon cancer cells (in culture, or CT-26 tumors in mice)
Description: PASylated CRT-targeted L-ASNases bound to ecto-CRT on cells were visualized by confocal immunofluorescence microscopy with reference to the prior art (Y. Zhang, et al., Cancers, 13(11), 2801, 2021). After overnight incubation in a cover-glass, CT-26 and MC-38 cells (104) were treated with anticancer agents for 4 h at 37° C. The cells were then fixed with 1% PFA for 15 min, stained with 100 nM PASylated recombinant proteins for 1 h on ice, and treated with anti-His tagged monobodies (diluted to 1:1000) and Alexa Fluor 488-conjugated secondary antibody for 1 h (5 μg/mL). Cell membranes were stained with Alexa Fluor 555-conjugated wheat germ agglutinin (WGA) (diluted to 1:5000). Between each step, samples were washed with cold T-PBS. Finally, the cells were incubated with 4′,6-diamidino-2-phenylindole (DAPI) (Thermo Fisher Scientific, USA) to stain the nuclei. Immunofluorescence signals were imaged using an LSM510 confocal microscope (ZEISS, Jena, Germany) and data were analyzed with ZEN-LSM imaging software (ZEISS, Jena, Germany).

ecto-CRT on MC-38 cells [3] = molecular target: T2, ecto-CRT on MC-38 cells; experiment: Flow cytometry binding to anticancer-agent-treated MC-38 cells; format: cell-based; parameters: endogenous in cells; host or cells: MC-38 mouse colon cancer cells (in culture); settings: for binding to cells: 100 nM protein; for binding after pretreatment with anti-CRT antibodies: MC-38 cells treated with DOX or MTX
Description: Cells were cultured at 37° C. in DMEM medium supplemented with 10% FBS and 100 U of streptomycin/penicillin in an atmosphere of 5% CO2. Cells were treated with each anticancer drug [3 μM methotrexate (MTX), 25 μM […] (DOX), or 15 μM gemcitabine (GEM)] to induce apoptosis (Y. Zhang, et al., Cancers, 13 (11), 2801, 2021). After 4 h of incubation, the cells were scraped and detached from the plate. The cells (10^5) were fixed with 1% PFA for 15 min and then treated with 100 nM of PASylated recombinant proteins for 1 h on ice. After washing five times with cold PBS buffer containing 0.1% Tween-20 (T-PBS), the cells were incubated with anti-His tagged monobodies (diluted to 1:1000) for 1 h and then treated with Alexa Fluor 488-conjugated secondary antibodies (5 μg/mL) for 1 h. Fluorescence signals were detected by FACSCanto II Flow Cytometer (BD Biosciences, USA). For blocking experiments, cells were first incubated with anticancer agents for 4 h and fixed with 1% PFA. Cells were then incubated with anti-CRT antibodies (diluted to1: 400) for 1 h to mask ecto-CRT. Cells were stained with PASylated recombinant proteins and followed the same procedure as described above.

[4] = MC-38 cells treated with DOX or MTX
[5] = MC-38 cells treated with DOX and MTX
[6] = MC-38 cells with GEM or PBS treatment

Row | Molecule | Kd [1] [nM] | affinity for CRT relative to single CRT3/CRT4 monobody [1] | immunofluorescence staining, binding to cells (ecto-CRT on MC-38 cells [2]; [4]) | immunofluorescence staining, binding to cells (ecto-CRT on MC-38 cells [2]; MC-38 cells treated with GEM) | binding to cells (ecto-CRT on MC-38 cells [3]; [5]) | binding after pretreatment with anti-CRT antibodies (ecto-CRT on MC-38 cells [3]) | binding to cells (ecto-CRT on MC-38 cells [3]; [6])
1 | B1 | 2.07 ± 0.173 | four times higher | only bound | not | efficiently bound | significantly inhibited | not
2 | B2 | 2.3 ± 0.166 | four times higher | only bound | not | efficiently bound | significantly inhibited | not
